Results as given in the DeepSol protein solubility set.

Assay: soluble on expression in E. coli; label from the status in PepcDB or PDB records

Soluble on expression in E. coli, soluble:
MCLDQVMEGSATVHMAAPPDKIWTLIADVRNTGRFSPETFEAEWLDGATGPALGARFRGHVRRNGIGPVYWTVCEPGREFGFAVLLGDRPVNNWHYRLTPTADGTEVTESFRLPPSVLTTVYYRVFGGWLRQRRNIRDMTKTLQRIKDLVEAG
YPNASPLLGSSWGGLIHLYTATARNSYHLQIHKNGHVDGAPHQTIYSALMIRSEDAGFVVITGVMSRRYLCMDFRGNIFGSHYFDPENCRFQHQTLENGYDVYHSPQYHFLVSLGRAKRAFLPGMNPPPYSQFLSRRNEIPLIHFNTPIPRRHTR
MVLDSGTQVYEQAPPRPPAGSPSQHHKLKPSNGNGPPLYPWPESLGMPLALAVPSALQQQTMWQTFSKLHLEQSSHMRRSESTYSVNSTGRRGRGKAPIGRGCDPGGTLRPAASLPHIAKIRKDVGSSSSKSPCMLVALRPTNMDQEREKFFQSHYTYNPQFEYQEPMPMSVLEKYQEASAQFMNQAVGIIEAVLEKFGTYENFEAATGGQLLTKCQIWSTVRKYMQKEGCVGEIVVQLSEDLLSQAVMMVENSRPTLAINLTGARQYWLEGMLRHEIGTHYLRGVNNSRQPWHSTEGRLQYGLQPANPTEEGLASLHSVLFRKQPFLWRAALLYYTIHQAAHMSFRQLFQDLAQYVQDEGVRWEYCVRAKRGQTDTSQPGCFSKDQVYLDGILRILRHRHTIDFQLLTSLGKVSYEDVEQLRPYGVLDNTRVPHFMKDLERYRQQLEHIMTTNRLDEAELGRLLPD
SMPAYACQRPSPLTHHNTLLSEALETLAEAAGFEANEGRLLSFSRAASVLKSLPCPVASLSQLHGLPYFGEHSTRVIQELLEHGTCEEVKQVRCSERYQTMKLFTQVFGVGVKTANRWYQEGLRTLDELREQPQRLTQQQKAGLQYYQDLSTPVRRADAEALQQLIEAAVRQTLPGATVTLTGGFRRGKLQGHDVDFLITHPEEGQEVGLLPKVMSCLQSQGLVLYHQYHRSHLADSAHNLRQRSSTMDVFERSFCILGLPQPQQAALAGALPPCPTWKAVRVDLVVTPSSQFPFALLGWTGSQFFERELRRFSRQEKGLWLNSHGLFDPEQKRVFHATSEEDVFRLLGLKYLPPEQRNA
MSLINPIDPAARRPQTTVQPSTPPQAKPKPLAATQVLPAQSVLNLAQSELGTDMQELGSIFPVEESCAETLENMSFALGTQARERMRGLSSSADRARPRSMMQRLAKQVSATAPDHLEELRQRVPGIEAVEEVDDLLNSLRQHQFDAGEMALLLAAMLGKDGLSPTRRRRLEEALDRVMDDEDWALQLFSHLEFGAVGKSGLAELRRLYQRAASRQSGLVYWFGQFRQMDDRQRKLKTLIRALAFELSAQGGATDIRLAAVITDLKRVLQFLGMEDHCDRVAKALAIPELDGNRIIEELLEIIQQSWVYPDWLSSRADALMPEEHSRHGYARRMGELVKLLPDDCFEDIDQRETILAAFLEYQEQLADEEEGHHHHHH
GMTYQALMFDIDGTLTNSQPAYTTVMREVLATYGKPFSPAQAQKTFPMAAEQAMTELGIAASEFDHFQAQYEDVMASHYDQIELYPGITSLFEQLPSELRLGIVTSQRRNELESGMRSYPFMMRMAVTISADDTPKRKPDPLPLLTALEKVNVAPQNALFIGDSVSDEQTAQAANVDFGLAVWGMDPNADHQKVAHRFQKPLDILELFK

Soluble on expression in E. coli, not soluble:
MLIELLISITVLASILVSCKKEKNEAAKLKPRGFDRKSSGAPAPAGANLVNKSGGSGGGSGGSGDANRLLKREIKEVKMEERSADDNETINDVKSNWGTV
MAHHHHHHMRRALHAAALPSRAPLTPQRYKSYVLKFLRGQLPHDLKDCAGALGCLYGTLPDVDEYRQFVVPLQVLQQYHQLGYAKLPRPVLDPPQVDILADEVNQLANNVEHHPKSEHLYATSLADLTGGPLFYCQGQWRCAWGMHDLVYLPTLTVAASQALGNRLVRLWYDEAFMKEARTGPCVPWQQNYVRWQHTTPVNHVSIMIALDTLNKDRGAPCLIPGSHRWREGQLLPPVPYDPTQSETQQLNTIWDITNDDEQEMLADTPPATVDLRRGEALLIHPKTLFATHGNRSLDAARCCCVHYMGEATCAVQDGPLLPHTTRFRAGTRVSGPFFPVVFDPAMTEDLLMLDNKEGGAAA
MIPPEIRRSVLLQKAIKLALAGTLLTFASFSATAADPSSDTETPQPPDILLGPLFNDVQNAKLFPDQKTFADAIPNSDPLMILADYRMQRNQSGFDLRHFVDVNFTLPKAGEKYVPPAGQSLREHIDGLWPVLTRSTKNVEKWDSLLPLPESYVVPGGRFREIYYWDSYFTMLGLAESGHWDKVADMVANFGYEIDAWGHIPNGNRTYYLSRSQPPFFAFMVELLAQHEGDDALKEYLPQLQKEYAYWMEGVETLQPGQQNQRVVKLEDGSVLNRYWDDRDTPRPESWVEDIATAKSNPNRPATEIYRDLRSAAASGWDFSSRWMDNPQQLSTIRTTTIVPVDLNALLYQLEKTLARASAAAGDRAKASQYDALANARQKAIEMHLWNNKEGWYADYDLQNNKIRDQLTAAALFPLYVNAAAKDRAVKVAAAAQAHLLQPGGLATTSVKSGQQWDAPNGWAPLQWVAAEGLQNYGQDDVAMEVTWRFLTNVQHTYDREKKLVEKYDVSSTGTGGGGGEYPLQDGFGWTNGVTLKMLDLICPQEKPCDSVPSTRPASLSATPTKTPSAATQLEHHHHHH
MSHHFRLAKGIPHVVDATPPHSMYNSPISIHYLPKRASSADPFKRKALSKSQRELTDFVNGRNGDPHGLRLPLPIRSSLTDLVKPKLLENRNYQPPRRKTPSKDHHSKAEENSKKAKKLERINKFKDAVLTDLIENDTYSDQMIMNSIRRHMEKLAGVISWDDLEKAADELIKKIGLNTNVQNSRRSSRSRDKNQRFNKPPLPYKVERIGSAQSLESLSSPSSSSAKTSSSSSSSSFSTSSQETNSSESS
MGSDKIHHHHHHMHQGAHLDLDDGYQGDISNIGFIIGAKGVAVIDTGGSRQVGEALLSAIREITDLPVLYVINTHIHPDHIFGNAAFKQEHPVFIGHAKLPNAMALRGEAYLRQGQKLLGIQFSESEIIPPTQLVASFQELDIGGRKLLLTAYPNAHTNTDLTVLDETTGTLWTGDLLFIERAPSIDGDIKGWLSAIEDLQKLTGIQLAVPGHGPATQDLQGALSNQARYLNLLLHDVRKAIKQGHSMQQAMESAAASESGHWQLFHEVNRRNVNLIYPVLEWE
MGSDKIHHHHHHMFEKQFNHRTLETSLGPVEIEGPVTSQILATYKLDPGLTAFRQPAEQHEALVEIAALEEGRIIIARQGNDIIGYVTFLYPDPYETWSEGNNPYILELGAIEVAARFRGQQIGKKLLEVSMLDPAMEHYLILTTEYYWHWDLKGSGLSVWDYRKIMEKMMNHGGLVFFPTDDPEIASHPANCLMARIGKHVAPEVVAHFDALRLRRRFMYD
MGSDKIHHHHHHMSKPSRWPLTADGIRFITPHVLVKRLQNHALAKGLFVTAMGYYPTASGHAMERKGHPDHILIYCTAGSGFLTMAGKTTEINSGDIFYLPAGSQHSYQASKELPWTLYWLHFDGTLANDFCQHINIVERKFTIGVQPRVIRVFDGISHLRHSSHNLAEFIQGGHQVQALLSYIALLVQQRKPSAINTFDTENLRAMMQEHIHSKLDLDSLAEAAKLSKYHFSKKFKQVTGESPISYFINMKMQRACYLLDSTPRSVKHVASELGYHDTYYFSRLFKKNIGMAPAIYRKAKL
MAHHHHHHMTSLTEEHEILIDEPPQFTAAAEVIAVGAEEPTVATPEEFTSAQEAGAFLQTPVGTPPATPTSVPTTPSPNEMAAKHARKRWRMEQLALQESVKVVESEPISRRGHSRKAEMSEFAITKAATLNTAPTLLSMSPNIIDTNVTMLGTKRVPLDNFLKVTVLHPKVTPVNLKLEFIDPVLEPVQLSRHQLGNRVTPNEGEGGGMSVKKKRGRKPLVASPSIEEAKAVESGYNAE
MGSDKIHHHHHHMSNGGRLVSQLEAEGSTHLTLPIHKKSLSSLWQIRPLRQLIEEHQPDIVHVRSRVPAWLTHFALRKIPANKRPHLISTVHGFYSVNRYSAIMTQAEKVIAVSDSVVKYITDHYKNCPPQDIVRIYRGIDPAAFPHNYQPSAQWFNQVFNDFPELENKFLLCLPGRITRLKGHESLIELMQQLHSQYPQLHAVIVGGADVKKQAYLSELQNTIQSKGLADKITFVGHRSDIREWLAFSDIVLSLSNQAETFGRTALEALSVGTPVIGWNRGGVAEILSHVYPQGLVEAENEKALLETVKHHIEQPQTVAPVTMFSLKDMCDQTLELYQSVLN
MGSDKIHHHHHHMENQDYTVRLTVQASPQEVFKQINRVTAWWTKNLQGDSEKLNDVFTVNFPGMHVSTQKLIECIPDKKVTWMVTDSHLTFIQRKTEWTDTTIQFDISRNVKHTEVLFTHKGLNPAIECYGDCAKGWDYFIKGSLFKLLTEGTGTPE
MIQHTMLKLYWANFTTAQLHHLTSTYPDFLSENVFHQHDMIKRWLTERNSERLWNKYERFKELKLMDIIKEMKKANVSFTTYFDDNYPSLCKEMYDYPYVIFYKGNPQFFNHSHSLAVIGSRNATQYTSQSLNYLFPSFRQLNMAIVSGLARGADSVAHQTALKYLLPTIGVLGFGHCYHYPKATLNLRTKVERNGLVISEYPPFSPISKHKFPERNRLISGLSRGVLITEAEERSGSQITIDCALEQNRNVYVLPGSMFNKMTKGNLRRINEGAQVVIDESSILYDYLF
MPQQTVEVKEVDVLIRGIWRKKKFTDIQKGQTFKIEENGRTKKYIARTDPYWDDMFETYIIDLLDKNKIRRNKLEHHHHHH
MGSDKIHHHHHHMPSVFQLQALCAAVEKPSLRQAAEALCKTQPALTHALKQLESQLGLPLFNRDGYRLVLTGSGERIYQLALKTLESHAELEQLAQHLARGDEDRVVLTVEASFDLTPILSALESVQAEFSQTEIVIQQEYLTGAVERVQQGHANLAITPLAPALSPGTRLDTQPLSQGQMLNVAAPRLLARYPSLCSILELRKEYQILVQDSGSGTLGLKLGVQSAQRHWYVNSFATKLSLIEQGMGWGRLPEWMLTEALAAGRLQLLELADFPARQRFDYHLVRRSASVPGPVATRLWQRLGGGAL
MAHHHHHHMSVIGVFSKGRATGHASVMSVLRYVPRARVPWQPSRFGRENLADDDMAQLWGTGRYRTGPGNYNSGYSTKKTHALEDSTVSIIPKHELEKFMPDISLGSKALVTPVSLMSARNGHRVTHDLIHSYDPYIGRLQKPAVVDHDNITVEDPNRVGLNAATLDCRSRIYRWLRRGPFFQEDNYFRRSTKLQRNGPVPVSVHEVPLMQRIIRLARRGHLKAACEEYRRVTSVPPVDVYRALTAACVPGAKLADAIAIFEDGHSRLFYVARDGEVLHNMLRCAIRAKHRVRVMWVYNVMVGRHYENVVVRAEVDVIWRYRIASLALEYLLDSNAGEEARTVYDYLVENELVDCDLHVRLGHVMQQALKEGKTVHVQQDALDGMALSQNVVAVAPQVAVAVYARYLETMQEGAAWTDARGLPLTDPAKTGADTNGAAAVAWLKAAFPDIDPVAVLRLARFRRSSKDLMAKDRPVYVQRAAQWVELLSSAHQTREEAPLTYLRKSRPSMANPNVRVAWLPERQRAHALLASDEGFKFAYAGPHTRFVEETFAYGENTLQSRYLAQQPVHTEVTPSVALGAAAVAAGMSSGSALPRLPGSSAAPQILHASVLLDGSLNGSSGSGTSTLRSGRNESAKAAASPTAGISSRPSSASSSAGLDDTHF
